Measurements from the supplement of paper PMC9170038.

Tested on: MS2 coat protein
Experiment: apparent KD of MS2 coat protein, switch OFF state (with FMN for OFF switches, without FMN for ON switches); designed switch direction (-1 OFF switch, 1 ON switch): -1; higher = weaker reporter binding
Conditions: FMN input: 0 or 200 uM; Eterna round: R93 (includes R88 designs)
In short: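 Apparent KD per design is the median of normalised cluster binding-curve fits. Designed RNA switches transcribed on-chip from Illumina sequencing clusters were titrated with SNAP-549-labelled MS2 coat protein in twofold steps from 0.7 or 1.5 nM to 3 µM, with 0.8–1.5 h down to 10–20 min per step. Buffer: 100 mM Tris-HCl pH 7.5, 80 mM KCl, 4 mM MgCl2, without or with constant ligand.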

In order of falling “apparent KD of MS2 coat protein” value:
1. GUUAUGUGAGGAUAUAUGUAGGAAACUACAUUAAGGGUAUCACAUGAGGAUCACCCAUGUAGAAGGCGCGUAGC [Ex2Try2_Neo]  256 nM
2. CAGUACUGAGGAUAUACAUGAGGAUCACCCAUGUGUAAAAGCUAGGAAACUAGCACAUGUAGAAGGCAGUACUG [Ex3: 815]  230 nM
3. AAAAAGGCAGGAUAUACGAGUCAAAGAAAAGACAAAAAGGGACAUGAGGAUCACCCAUGUAGAAGGGCCAAAAA [Fiskers exclusion D2 62% 4]  193 nM
4. AAAAAGAGAGGAUAUACAUGAGGAUCACCCAUGUGACAUUAAAUAAAUAAAAUAAAGUGUAGAAGGCUCAAAAA [65%, Moding Exclusion3-cac2, 23]  136 nM
5. GCUUGCGAAGGAUAUACAUGAGGAUCACCCAUGUGAGAGAAAAAAGUGAGAAAGAAAAGUAGAAGGUCGUGAGG [salish99-ex3-95]  72.8 nM
6. AACAAGACAGGAUAUACAUGAGGAUCACCCAUGUCACAAUAAAGCAGCGUAACACAAAGUAGAAGGGUCAUGGA [Ruby 9]  71.5 nM
7. AUGUACCUAGGAUAUACAUGAGGAUCACCCAUGUAUUGGGAGCAAUCAAGUUAAUAUUGUAGAAGGAGGUGAAA [JR_Exc003_Sub316]  67.9 nM
8. CUCUUGUCAGGAUAUUCAAGAAAAGAAGAGAAAGAAAAGAAGAAGAAGGGACAUGAGGAUCACCCAUGUAAGAA [EteRNA is fun!]  67.2 nM
9. CUCUAGUGAGGAUAUGGAAGAAAAGAAAAGAAAGAAAAGAACCAGAAGGCACAUGAGGAUCACCCAUGUAAGAA [EteRNA is fun!]  66 nM
10. CUGGUGUCAGGAUAUGCAUAGCAGUGACCAAAACCCGGUCAGCAGAAGGGACAUGAGGAUCACCCAUGUUAAAG [Alatele]  57.7 nM
11. CAAAGGUGAGGAUAUGCAUAACUAUGACGAAAGUCAUAAACACAUGAGGAUCACCCAUGUAGAAGGCGCCACAA [e2-3]  57.2 nM
12. AAAAAUGGAGGAUAUACAUGAGGAUCACCCAUGUGUGGCCAUACUAUGUGGGCGUCAGGUAGAAGGCCAAAAAA [Gilly Gone Silly 24 - Jieux - Exclusion 3]  56 nM
13. GGUUGGCAAGGAUAUACAUGAGGAUCACCCAUGUGAGAGAAAAAAGUGAGAAAGAAAAGUAGAAGGUGUUGACG [salish99-ex3-75]  53 nM
14. GGAAAACAUGAGGAUCACCCAUGUAAGGAUAUGCUAAGGAAGGAAAAAAACCCACCAGGCAGAAGGUACUAAAG [Janelle Amethyst 18 Mod 4 - Jieux - Exclusion 1]  47.2 nM
15. GAAAAGUGAGGAUAUGUCAAAAGUCACAAAAGUGACAAAAGACAGAAGGCACAUGAGGAUCACCCAUGUGAAAA [Mat - Exaclusion 4 - Eli mod - D55]  43.8 nM
16. AAGAAGCGAGGAUAUACAAAAUAAAAGAAAAGAAAGAAAGAACAUGAGGAUCACCCAUGUAGAAGGUGCAAGAA [Sehetepkare Intef IV]  43.5 nM
17. AAAAAACAUGAGGAUCACCCAUGUGAGGAUAUGCUAUGGAAAUAAAAAAUAAAACAUAGCAGAAGGCACACCAA [Mat - Exclusion 1 - Eli mod - D44]  42.9 nM
18. AAGAACUGAGGAUAUACAUGAGGAUCACCCAUGUAAAAGAAAGAAAAGGGAAAGAAAAGUAGAAGGCAGAAGAA [Nebmaatre Amenhotep III]  42.8 nM
19. AGGGUACAUGAGGAUCACCCAUGUUAGGAUAUAGAAAAGAAAAGAAAAGAAAGAAGAACUAGAAGGGACAAGAA [Unas]  41.3 nM
20. AAAUAGCAAGGAUAUACAUGAGGAUCACCCAUGUGAACCAGGUAUGGAAUAGAAUAGAGUAGAAGGUGCAAAUA [Mod 3 of Ex 3 Tesla 8 - Jieux - Exclusion 3]  37.8 nM
21. AACUAACAUGAGGAUCACCCAUGUCAGGAUAUGCAUCGAUCGAUCGAUCGAUCGAUCAGCAGAAGGGACAAAAA [Amethyst 92]  37 nM
22. CUCUUGUAAGGAUAUGACUACAUAAAAAAAAAAAAAUGUAGUCAGAAGGUACAUGAGGAUCACCCAUGUACAAA [Brourd - Exclusion 4 - Sub 1]  36 nM
23. CUCAUGUUAGGAUAUUUAUGAAAUGAAGUGAAAGAAAAGAAAAAGAAGGAACAUGAGGAUCACCCAUGUUAGAA [EteRNA is fun!]  35.4 nM
24. AAGGAGUGAGGAUAUCGGAAAGGACACGAAAGUGACAAAGACGAGAAGGCACAUGAGGAUCACCCAUGUAAAAA [milkweed 22]  34.6 nM
25. AAAAAACAUGAGGAUCACCCAUGUCAGGAUAUCGAAAGAAAAAAAAAGAAAGAAAAAACGAGAAGGGACAAAAA [Amethyst 29]  33.1 nM
26. UAAAAGUGAGGAUAUGUCAAAAGUCACAAAAGUGACAAAAGACAGAAGGCACAUGAGGAUCACCCAUGUGAAAU [Mat - Exaclusion 4 - Eli mod - D56]  32.2 nM
27. AACAUGUGAGGAUAUAAAAGAAAAGAAAAGAAAGAAAAGAAUUAGAAGGCACAUGAGGAUCACCCAUGUAAGAA [EteRNA is fun!]  31.9 nM
28. AAAAUACGAGGAUAUACAUGAGGAUCACCCAUGUCAAAAAAUGACUACACAAAAGAAAGUAGAAGGCGUAAAAA [Ex 3 May 16]  30.4 nM
29. GAAAACAUAGGAUAUACAUGAGGAUCACCCAUGUUAAAAUAAAGAAAGGGAGAAAUAAGUAGAAGGAUGAAAAA [Mat - Mod of Meechl]  29.8 nM
30. AACAUACAUGAGGAUCACCCAUGUUAGGAUAUGCCGGGUUAGAGCCAACUAAAAAACCGUAGAAGGGACGAAAA [Bilbo Confounded 10 - Jieux - Exclusion 1]  28.2 nM
31. AGUCAGAGAGGAUAUACAUGAAAAAAAAAAGUAAGAUCCCUACAUGAGGAUCACCCAUGUAGAAGGCUCUGACA [Ex2 Design 137: Sub-opt 1]  26.8 nM
32. AACAGGUCAGGAUAUGUGGAAAAAAUAAAAAAAAUAAAAACACAGAAGGGACAUGAGGAUCACCCAUGUCAACA [May 24]  25.3 nM
33. AAAAUGUUAGGAUAUGUGAAGGCGUCUGAUAGACGAGGCCUGCAGAAGGGACAUGAGGAUCACCCAUGUAAAAA [Mod 1 of Nando's Round 1 Power Srip]  24.7 nM
34. CUCAAGUUAGGAUAUGUAAGAAAAGAAGAGAAAGAAAAGAAACAGAAGGAACAUGAGGAUCACCCAUGUAAGAA [EteRNA is fun!]  24.1 nM
35. CAUUCACAUGAGGAUCACCCAUGUAAGGAUAUCGAAAUAUAACUAAUCAAUAAACAAACGAGAAGGUACAAAAA [Exclusion 1 design 10]  23.8 nM
36. AAAACGGUAGGAUAUACAAUUGAGAACUAGAUCGAAAAAAAACAUGAGGAUCACCCAUGUAGAAGGGCCAAAAA [Ex2 Malc#10]  23.6 nM
37. AAAAAGUCAGGAUAUAUAGGAAAAAUAAAAAAAAUAAAACUAUAGAAGGGACAUGAGGAUCACCCAUGUUAAAA [Ex 4 May 15]  22.9 nM
38. AAAAAGGGAGGAUAUACAGGAGGUAAGGAAAAAAAAAAAAAACAUGAGGAUCACCCAUGUAGAAGGCUUAAAAA [Ecls2-IV]  22 nM
39. AAGAAGACAGGAUAUACAUGAGGAUCACCCAUGUAAAAGAAAGAGGGAAAAGAGAAAAGUAGAAGGGUCAAGAA [Ptolemy III Euergetes I]  20.5 nM
40. AGUCAUACAGGAUAUACAUGAGGAUCACCCAUGUAAAUCCUAAAAAGAAAAAAAUCAUGUAGAAGGGUAUGACA [EX3 224: Super Stable 24]  17.2 nM
41. AAAAAUGGAGGAUAUACAUGAGGAUCACCCAUGUGUAACUAAACAAAACACAAAAAAAGUAGAAGGCCAAAAAA [Gilly Gone Silly 6 - Jieux - Exclusion 3]  17.1 nM
42. AAGAUGUCAGGAUAUACAUAAAUAAAAAAUUAUGUUAAAACACAUGAGGAUCACCCAUGUAGAAGGGACAUCAA [AJ 7]  15.5 nM
43. AAGUCCAUAGGAUAUAUAUGGAUAUACAUUUAUGUAGAACUACAUGAGGAUCACCCAUGUAGAAGGAUGGAAUA [Mat - Same state - Mayanna Mod - D141]  14.1 nM
44. GAUCCACAUGAGGAUCACCCAUGUGAGGAUAUCGUGCAGAAAAAAAAAAAAAACUGCACGAGAAGGCACAUGGG  13 nM
